# Measured values: patent publication US20230212266A1 (FRED HUTCHINSON CANCER CENTER, published 2023)
# Where two headings read alike, the source gives them in different places.
# Key:
# Experiment in all cases: BLI, mAb on anti-human Fc probe, antigen in solution
# [1] = target: T1, SARS-CoV-2 receptor binding domain (RBD) (SARS-CoV-2, UniProt P0DTC2 319-591)
# [2] = target: T1, SARS-CoV-2 receptor binding domain (RBD); remark: listed apart in the source
# [3] = target: T1, SARS-CoV-2 receptor binding domain (RBD); remark: listed apart in the source
# [4] = target: T1, SARS-CoV-2 receptor binding domain (RBD); remark: listed apart in the source
# [5] = target: T1, SARS-CoV-2 receptor binding domain (RBD); remark: listed apart in the source
# [6] = target: T1, SARS-CoV-2 receptor binding domain (RBD); remark: listed apart in the source
# [7] = target: T1, SARS-CoV-2 receptor binding domain (RBD); remark: listed apart in the source
# [8] = target: T1, SARS-CoV-2 receptor binding domain (RBD); remark: listed apart in the source
# [9] = target: T1, SARS-CoV-2 receptor binding domain (RBD); remark: listed apart in the source
# [10] = target: T1, SARS-CoV-2 receptor binding domain (RBD); remark: listed apart in the source
# [11] = target: T1, SARS-CoV-2 receptor binding domain (RBD); remark: listed apart in the source
# [12] = target: T1, SARS-CoV-2 receptor binding domain (RBD); remark: listed apart in the source
# [13] = target: T1, SARS-CoV-2 receptor binding domain (RBD); remark: listed apart in the source
# [14] = target: T1, SARS-CoV-2 receptor binding domain (RBD); remark: listed apart in the source
# [15] = target: T1, SARS-CoV-2 receptor binding domain (RBD); remark: listed apart in the source
# [16] = target: T1, SARS-CoV-2 receptor binding domain (RBD); remark: listed apart in the source
# [17] = target: T1, SARS-CoV-2 receptor binding domain (RBD); remark: listed apart in the source
binder,measurement,setting,value
"CV33 (antibody, V domains shown, expressed as IgG) VH: QVQLVQSGAEVKKPGASVKVSCKASGYTFTSYDISWVRQAPGQGLEWMGWISAYNGNTNYAQKLQGRVTMTTDTSTSTAYMELRSLRSDDTAVYYCARDSVAGIYYYYGMDVWGQGTTVTVSS VL: QSVLTQPPSVSGAPGQRVTISCTGSSSNIGAGYDVHWYQQLPGTAPKLLIYGNSNRPSGVPDRFSGSKSGTSASLAITGLQAEDEADYYCQSYDSSLSGPVVFGGGTKLTVL",binding result,[1],no binding
"CV37 (antibody, V domains shown, expressed as IgG) VH: QVQLVQSGAEVKKPGASVKVSCKASGYTFTSYGISWVRQAPGQGLEWMGWISAYNGNTNYAQKLQGRVTMTTDTSTSTAYMELRSLRSDDTAVYYCARARVAYDYIWGSYRYKAFDYWGQGTLVTVSS VL: not shown",binding result,[2],no binding
"CV36 (antibody, V domains shown, expressed as IgG) VH: QVQLVQSGAEVKKPGASVKVSCKASGYTFTGYYMHWVRQAPGQGLEWMGWINPNSGGTNYVQKFQGRVTMTRDTSISTAYMELNRLRSDDTAVYFCARDLTTTAGTDYYYGMDVWGQGTTVTVSS VL: SYELTQPPSVSVSPGQTARITCSGDALPKQYAYWYQQKPGQAPVLVIYKDTERPSGIPERFSGSSSGTTVTLTISGVQAEDEADYYCQSADSSGTYMIFGTGTKVTVL",binding result,[3],no binding
"CV48 (antibody, V domains shown, expressed as IgG) VH: QVQLVQSGAEVKKPGSSVKVSCKASGGTFSSYTINWVRQAPGQGLEWMGRIIPILGIADYAQKFQGRVTITADKSTSTAYMELSSLRSEDTAVYYCARDLVEDTAMVTGAAAGTWGQGTLVTVSS VL: not shown",binding result,[4],no binding
"CV2-2 (antibody, V domains shown, expressed as IgG) VH: EVQLLESGGGLAQPGGSLRLSCAASGFTFSSYAMSWVRQAPGKGLEWVSAISGSGGNTYYADSLKGRFTISRDNSKSTLYLQMNSLRAEDTAVYYCAKGPMWQWLVRLSLVGDYWGQGTLVTVSS VL: SYVLTQPPSVSVAPGQTARITCGGNNIGSKGVHWYQQKPGQAPVLVVFDDSDRPSGIPERFSGSNSGNTATLTISRVEAGDEADYYCQVWDSTSDHPGYVFGTGTKVTVL",binding result,[5],no binding
"CV44 (antibody, V domains shown, expressed as IgG) VH: QVQLVQSGAEVKKPGASVKVSCKASGYTFTSYYMHWVRQAPGQGLEWMGIINPSGGSTSYAQKFQGRVTMTRDTSTSTVYMELSSLRSEDTAVYYCARDLTSTSSSPYSYYYGMDVWGQGTTVTVSS VL: not shown",binding result,[6],no binding
"CV40 (antibody, V domains shown, expressed as IgG) VH: QVQLVQSGAEVKKPGASVKVSCKASGYTFSSYGISWVRQDPGQGLEWMGWISAYNGNTNYAQKLQGRVTMTTDTSTSTAYMELRSLRSDDTAVYYCARVGLWWLGHPDAFDIWGQGTMVTVSS VL: DIQMTQSPSSLSASVGDRVTITCRASQGIRNDLGWYQQKPGKAPKRLIYAASSLQSGVPSRFSGSGSGTEFTLTISSLQPEDFATYYCLQHNSYPLTFGGGTKVEIK",binding result,[7],no binding
"CV2-3 (antibody, V domains shown, expressed as IgG) VH: QLQLQESGPGLVKPSETLSLTCTVSGGSISSSTYYWGWIRQPPGKGLEWIGNIYYTGSTYYNPSLKSRVTISVDTSKNHFSLRLSSVTAADTAVYYCARHNRFWSEDTPFDPWGQGTLVTVSS VL: DIQMTQSPSSLSASVGDRVTITCRASQGIRNDLGWYQQKPGKAPKRLIYAASSLQSGVPSRFSGSGSGTEFTLTISSLQPEDFATYYCLQHNSYPLTFGGGTKVEIK",binding result,[8],no binding
"CV47 (antibody, V domains shown, expressed as IgG) VH: QVQLVQSGAEVKKPGASVKVSCKASGYTFTSYGISWVRQAPGQGLEWMGWISAYSGNTNYAQKLQGRVTMTTDTSTSTAYMEVRSLRSDDTAVYYCARVGLWWLGHPDVFDIWGQGTMVTVSS VL: DIQMTQSPSSLSASVGDRVTITCRASQGIRNDLGWYQQKPGKAPKRLIYAASSLQSGVPSRFSGSGSGTEFTLTISSLQPEDFATYYCLQHNSYPLTFGGGTKVEIK",binding result,[9],no binding
"CV6 (antibody, V domains shown, expressed as IgG) VH: QVQLVQSGAEVKKPGASVKVSCKVSGYTLTELSMHWVRQAPGKGLEWMGGFDPEDGETIYAQKFQGRVTMTEDTSTDTAYMELSSLRSEDTAVYYCATGPPYCSSTSCEHWFDPWGQGTLVTVSS VL: not shown",binding result,[10],no binding
"CV34 (antibody, V domains shown, expressed as IgG) VH: QVQLVESGGGVVQPGRSLRLSCAASGFTFSSYAMHWVRQAPGKGLEWVAVISYDGSNKYYADSVKGRFTISRDNSKNTLYLQMNSLRAEDTAVYYCARSYGGSYYYGMDVWGQGTTVTVSS VL: SYELTQPHSVSVATAQMARITCGGNNIGSKAVHWYQQKPGQDPVLVIYSDSNRPSGIPERFSGSNPGNTATLTISRIEAGDEADYYCQVWDSSSDHVVFGGGTKLTVL",binding result,[11],no binding
"CV2-1 (antibody, V domains shown, expressed as IgG) VH: QVQLVESGGGVVQPGRSLRLSCAASGFTFSSYAMHWVRQAPGKGLEWVAVISYDGSNKYYADSVKGRFTISRDNSKNTLYLQMNSLRAEDTAIYYCARPYSGSYYAYFDYWGQGTLVTVSS VL: EIVMTQSPATLSVSPGERATLSCRASQSVSSNLAWYQQKPGQAPRLLIYGASTRATGIPARFSGSGSGTEFTLTISSLQSEDFAVYYCQQYNNWLALTFGGGTKVEIK",binding result,[12],no binding
"CV41 (antibody, V domains shown, expressed as IgG) VH: QVQLVESGGGVVQPGRSLRLSCAASGFTFSSYAMHWVRQAPGKGLEWVAVISYDGSNKYYADSVKGRFTISRDNSKNTLYLQMNSLRAEDTAVYYCARTKGGSYFAPFDYWGQGTLVTVSS VL: not shown",binding result,[13],no binding
"CV2-4 (antibody, V domains shown, expressed as IgG) VH: QVQLVQSGAEVKKPGSSVKVSCKASGGTFSSYAITWVRQAPGQGLEWMGGIIPIFGTANYAQKFQGRVTITADESTSTAYMELSSLRSEDTAVYYCVRVALYDSSGYSPDYWGQGTLVTVSS VL: EIVLTQSPATLSLSPGERATLSCRASQSVSNFLAWYQQKPGQAPRLLIYDASNRATGIPARFSGSGSGTDFTLTISSLEPEDFAVYYCQHRSNWPPGITFGQGTRLEIK",binding result,[14],no binding
"CV2-5 (antibody, V domains shown, expressed as IgG) VH: QVQLVQSGAEVKKPGSSVKVSCKASGGTFSSYAISWVRQAPGQGLEWMGGIIPIFGTTNNAQKFQGRVTLTADESTSAAYMELSSLRSEDTAVYYCARIEPYASTGYTFDYWGQGTLVTVSS VL: EIVLTQSPATLSLSPGERATLSCRASQSVSSFLAWYQQKPGQAPRLLIYDASNRATGIPARFSGSGSGTDFTLTISSLEPEDFAVYYCQQRSNWPPRITFGQGTRLEIK",binding result,[15],no binding
"CV39 (antibody, V domains shown, expressed as IgG) VH: QVQLVESGGGVVQPGRSMRLSCAASGFNLSSYAMHWVRQASGKGLEWVSLISYDGSIKYYADSVKGRFTVSGDNSKNTLFLQMSSLRADDSALYYCVRGGVSGPNAFDIWGQGTTVTVSS VL: not shown",binding result,[16],no binding
"CV42 (antibody, V domains shown, expressed as IgG) VH: QVQLVQSGAEVKKPGASVKVSCKASGYTFTSYGISWVRQAPGQGLEWMGWISAYNGNTNYAQKVQGRVTMTTDTSTSTAYMELRSLRSDDTAVYYCARDRGYAATFGVFDYWGQGTLVTVSS VL: DIQMTQSPSSLSASVGDRVTITCRASQSISSYLNWYQQKPGKAPKFLIYAASSLQSGVPSRFSGSGSGTDFTLTISSLQPEDFATYYCQQTYITAFTFGPGTKVDIK",binding result,[17],no binding
